# B1: PDC_(2.03), computationally designed thermostable variant of Zymomonas mobilis pyruvate decarboxylase (enzyme)
# chain: MDYTVGTYLAERLVQIGLKHHFAVAGDYNLVLLDNLLDNKNMEQVYCCNELNCGFSAEGYARAKGAAAAVVTYSVGALSAFDAIGGAYAENLPVILISGAPNNNDHAAAHVLHHALGKTDYHYQLEMAKNITAAAEAIYTPEEAPAKIDHVIKTALREKKPVYLEIACNIASMPCAAPGPASALFNDEASDEASLNAAVEETLKFIENRDKVAVLVGSKLRAAAAEEAAVKFADALGGAVATMAAAKSFFPEENPHYIGTSWGEVSYPGVEKTMKEADAVIALAPVFNDYSTTGWTDIPDPKKLVLAEPRSVVVNGIRFPSVHLKDYLTRLAEKVSKKTGALDFFKSLNAGELKKADPADPSAPLVNAEIARQIEDLLTPNTTVIAETGDSWFNAQRMKLPNGARVEYEMQWGHIGWSVPAAFGYAVGAPERRNILMVGDGSFQLTAQEVAQMVRLKLPVIIFLINNYGYTIEVMIHDGPYNNIKNWDYAALMEVFNGNGGYDSGAGKGLKAKTAAELEEAIKVALDNTDGPTLIECFIAREDCTEELVKWGERVAAANSRKPVNKLL
# notes: the wild-type structures 2WVA and 2WVG served as design template and search model; Crystallised with thiamine pyrophosphate (TPP) and Mg2+; the asymmetric unit of 5TMA holds two molecules; also called variant 2.03; source: E. coli BL21 (DE3), purified (HisPur Cobalt column, Superdex 200 size-exclusion chromatography)
# Target: the molecule itself
# Assay: crystal structure; PDC_(2.03) at 6 mg/mL in 20 mM Tris pH 7.5, 100 mM NaCl, 1 mM MgCl2, 0.5 mM DTT, 0.1 mM TPP; crystals grown in 0.1 M MES monohydrate pH 6.0, 2.4 M ammonium sulfate at 20 °C; two molecules in the asymmetric unit
protein,measurement,value
B1,binding result,binds
